From patent US20140220634A1 (Janssen / Centocor, published 2014)
Changes are numbered by the printed parent chain.

B1: Fab323-B3 (Fab, V domains shown)
VH: EVQLLESGGGLVQPGGSLRLSCAASGFTFSSYAMSWVRQAPGKGLEWVSAIRYDGSSKYYADSVKGRFTISRDNSKNTLYLQMNSLRAEDTAVYYCAKNLKILDYWGQGTLVTVSS
VL: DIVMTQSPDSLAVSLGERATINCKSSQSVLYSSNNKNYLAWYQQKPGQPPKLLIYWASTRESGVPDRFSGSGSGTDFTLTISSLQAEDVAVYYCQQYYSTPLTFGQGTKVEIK
notes: Human Fab from a pIX phage library, made in E. coli; kappa light chain (germline B3 scaffold); also called VH323-B3/VLB3
B2: Fab551-3 (Fab, V domains shown)
VH: EVQLVQSGAEVKKPGESLKISCKGSGYSFTSYWIGWVRQMPGKGLEWMGIIYPGDSDTRYSPSFQGQVTISADKSISTAYLQWSSLKASDTAMYYCARGLFWFFDYWGQGTLVTVSS
VL: EIVLTQSPATLSLSPGERATLSCRASQSVDSWLAWYQQKPGQAPRLLIYDASNRATGIPARFSGSGSGTDFTLTISSLEPEDFAVYYCQQFDTWPITFGQGTKVEIK
notes: Human Fab from a pIX phage library, made in E. coli; kappa light chain
B3: Fab323-G1 (Fab, V domains shown)
VH: EVQLLESGGGLVQPGGSLRLSCAASGFTFSDYWMSWVRQAPGKGLEWVSGIWGSGSSTYYADSVKGRFTISRDNSKNTLYLQMNSLRAEDTAVYYCAKHWGRGGDLDYWGQGTLVTVSS
VL: B2 VL with D30S, W32Y, F91R, D92S, T93N, I96L
notes: Human Fab from a pIX phage library, made in E. coli; kappa light chain (germline L6 scaffold); also called CNTO 3631
B4: Fab169-34 (Fab, V domains shown)
VH: QVQLVQSGAEVKKPGSSVKVSCKASGGTFSSYAISWVRQAPGQGLEWMGGIIPIFGTANYAQKFQGRVTITADESTSTAYMELSSLRSEDTAVYYCAREGPASWDNWALDYWGQGTLVTVSS
VL: B2 VL with D30S, S31D, D50Y, F91S, D92S, W94A
notes: Human Fab from a pIX phage library, made in E. coli; kappa light chain; also called VH169-34/VL169-34
B5: Fab169-G11 (Fab, V domains shown)
VH: QVQLVQSGAEVKKPGSSVKVSCKASGGTFSSYAISWVRQAPGQGLEWMGGIIPIFGTANYAQKFQGRVTITADESTSTAYMELSSLRSEDTAVYYCARDGYDIVLGIFDYWGQGTLVTVSS
VL: B2 VL with D30S, W32Y, F91R, D92S, T93N, I96L
notes: Human Fab from a pIX phage library, made in E. coli; kappa light chain (germline L6 scaffold); also called VH169-G11/VLL6
B6: Fab169-C2 (Fab, V domains shown)
VH: QVQLVQSGAEVKKPGSSVKVSCKASGGTFSSYAISWVRQAPGQGLEWMGGIIPIFGTANYAQKFQGRVTITADESTSTAYMELSSLRSEDTAVYYCARHWRLNYWGQGTLVTVSS
VL: B2 VL with D30S, W32Y, F91R, D92S, T93N, I96L
notes: Human Fab from a pIX phage library, made in E. coli; kappa light chain (germline L6 scaffold); also called VH169-C2/VLL6
B7: Fab169-64 (Fab, V domains shown)
VH: QVQLVQSGAEVKKPGSSVKVSCKASGGTFSSYAISWVRQAPGQGLEWMGGIIPIFGTANYAQKFQGRVTITADESTSTAYMELSSLRSEDTAVYYCARNIVGDYLLDYWGQGTLVTVSS
VL: B2 VL with S31D, F91G, W94A
notes: Human Fab from a pIX phage library, made in E. coli; kappa light chain; also called VH169-64/VL169-64
B8: Fab169-47 (Fab, V domains shown)
VH: QVQLVQSGAEVKKPGSSVKVSCKASGGTFSSYAISWVRQAPGQGLEWMGGIIPIFGTANYAQKFQGRVTITADESTSTAYMELSSLRSEDTAVYYCARTSPSFDYWGQGTLVTVSS
VL: B2 VL with D30R, S31D, W32F, D50Y, F91G, D92F, T93H, I96F
notes: Human Fab from a pIX phage library, made in E. coli; kappa light chain; also called VH169-47/VL169-47
B9: Fab169-31 (Fab, V domains shown)
VH: QVQLVQSGAEVKKPGSSVKVSCKASGGTFSSYAISWVRQAPGQGLEWMGGIIPIFGTANYAQKFQGRVTITADESTSTAYMELSSLRSEDTAVYYCARHLYYMLDYWGQGTLVTVSS
VL: B2 VL with D30A, S31D, F91Y, T93G
notes: Human Fab from a pIX phage library, made in E. coli; kappa light chain; also called CNTO 4093
B10: Fab169-45 (Fab, V domains shown)
VH: B8 VH with T99R, S100L, P101G, S102L
VL: B2 VL with W32A, F91Y, T93R, I96L
notes: Human Fab from a pIX phage library, made in E. coli; kappa light chain; also called VH169-45/VL169-45
B11: Fab 169-76 (Fab, V domains shown)
VH: B8 VH with A33G, I54Y, T99P, S100T, P101N, S102V, F103L
VL: B2 VL with D30R, S31K, W32F, F91S, D92N, T93N, I96F
notes: Human Fab from a pIX phage library, made in E. coli; kappa light chain (detected with anti-kappa-HRP); also called VH169-76/VL169-76
B12: Fab323-G9 (Fab, V domains shown)
VH: EVQLLESGGGLVQPGGSLRLSCAASGFTFSSYWMHWVRQAPGKGLEWVSAISGSGGSTYYADSVKGRFTISRDNSKNTLYLQMNSLRAEDTAVYYCAKYLRWGSYGILDYWGQGTLVTVSS
VL: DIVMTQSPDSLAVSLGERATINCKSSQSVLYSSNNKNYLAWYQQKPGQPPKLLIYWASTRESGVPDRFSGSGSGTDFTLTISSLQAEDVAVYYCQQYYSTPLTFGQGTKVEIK
notes: Human Fab from a pIX phage library, made in E. coli; kappa light chain (germline B3 scaffold); also called VH323-G9/VLB3

Experiments:
rat collagen I = molecular target: T1, rat collagen I (rat, UniProt P02454 152-1207; P02466 86-1125); test: ELISA, plate coated with 10 µg/ml rat collagen I, anti-kappa-HRP, chemiluminescence
T1 construct: Bought collagen preparation
Method: (§1) Maxisorp ELISA plates (Nunc) were coated with 10 μg/ml human collagen I (Chondrex), human collagen II (Chondrex), rat collagen I (Chondrex), rat collagen II (Chondrex) or with 5 μg/ml human collagen IV (Chemicon) or human collagen V (Chemicon), or with anti-Fd (the Binding Site) at 1 μg/ml, all in PBS, according to manufacturer's instructions. The wells were washed three times in TBST and blocked for one hour with 200 μL 3% milk in TBST. 100 μL of the Fab lysate was added onto the wells of the coated ELISA plates, and incubated 1 hour at room temperature. The wells were washed three times followed by addition of 100 μL of anti-kappa-HRP (Southern Biotech) at 1:5000 in PBS. The plates were incubated at room temperature for one hour, washed three times with TBST, and developed with BM Chemiluminescence ELISA Substrate (Roche Applied Science). The clones that bound to human and rat collagen II without binding to human collagen I, IV or V, or rat collagen I were sequenced and unique clones were further characterized.

human collagen I = molecular target: T2, human collagen I (human, UniProt P02452 162-1218; P08123 80-1119); test: ELISA, plate coated with 10 µg/ml human collagen I, anti-kappa-HRP, chemiluminescence
T2 construct: Bought collagen preparation
T2 sequence (P02452 162-1218, chain 1 of 2): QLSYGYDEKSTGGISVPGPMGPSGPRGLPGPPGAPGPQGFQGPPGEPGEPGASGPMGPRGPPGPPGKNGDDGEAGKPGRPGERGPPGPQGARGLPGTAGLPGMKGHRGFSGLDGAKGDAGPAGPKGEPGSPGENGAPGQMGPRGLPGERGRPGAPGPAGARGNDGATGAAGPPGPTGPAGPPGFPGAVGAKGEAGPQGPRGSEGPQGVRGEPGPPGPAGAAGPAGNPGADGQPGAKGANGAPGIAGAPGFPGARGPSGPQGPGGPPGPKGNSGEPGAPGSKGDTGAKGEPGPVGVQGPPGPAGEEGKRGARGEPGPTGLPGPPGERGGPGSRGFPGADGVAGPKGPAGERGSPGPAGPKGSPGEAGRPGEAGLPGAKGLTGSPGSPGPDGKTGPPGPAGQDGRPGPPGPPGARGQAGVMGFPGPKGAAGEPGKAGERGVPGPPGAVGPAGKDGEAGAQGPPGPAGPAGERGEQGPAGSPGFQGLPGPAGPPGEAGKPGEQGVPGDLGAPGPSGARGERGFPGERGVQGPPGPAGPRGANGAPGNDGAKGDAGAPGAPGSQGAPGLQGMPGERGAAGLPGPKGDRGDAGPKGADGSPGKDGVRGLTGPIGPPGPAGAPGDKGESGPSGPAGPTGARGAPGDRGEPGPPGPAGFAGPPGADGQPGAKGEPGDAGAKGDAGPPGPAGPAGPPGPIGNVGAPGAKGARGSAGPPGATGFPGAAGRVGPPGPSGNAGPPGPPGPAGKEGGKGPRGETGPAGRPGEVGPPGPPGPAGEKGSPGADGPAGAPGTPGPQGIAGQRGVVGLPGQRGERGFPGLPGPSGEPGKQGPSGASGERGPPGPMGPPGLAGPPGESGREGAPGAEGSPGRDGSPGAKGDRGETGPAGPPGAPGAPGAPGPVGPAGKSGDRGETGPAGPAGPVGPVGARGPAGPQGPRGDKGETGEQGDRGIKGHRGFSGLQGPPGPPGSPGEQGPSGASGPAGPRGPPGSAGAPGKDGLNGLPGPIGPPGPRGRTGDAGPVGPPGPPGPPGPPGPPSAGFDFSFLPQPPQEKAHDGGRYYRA
T2 sequence (P08123 80-1119, chain 2 of 2): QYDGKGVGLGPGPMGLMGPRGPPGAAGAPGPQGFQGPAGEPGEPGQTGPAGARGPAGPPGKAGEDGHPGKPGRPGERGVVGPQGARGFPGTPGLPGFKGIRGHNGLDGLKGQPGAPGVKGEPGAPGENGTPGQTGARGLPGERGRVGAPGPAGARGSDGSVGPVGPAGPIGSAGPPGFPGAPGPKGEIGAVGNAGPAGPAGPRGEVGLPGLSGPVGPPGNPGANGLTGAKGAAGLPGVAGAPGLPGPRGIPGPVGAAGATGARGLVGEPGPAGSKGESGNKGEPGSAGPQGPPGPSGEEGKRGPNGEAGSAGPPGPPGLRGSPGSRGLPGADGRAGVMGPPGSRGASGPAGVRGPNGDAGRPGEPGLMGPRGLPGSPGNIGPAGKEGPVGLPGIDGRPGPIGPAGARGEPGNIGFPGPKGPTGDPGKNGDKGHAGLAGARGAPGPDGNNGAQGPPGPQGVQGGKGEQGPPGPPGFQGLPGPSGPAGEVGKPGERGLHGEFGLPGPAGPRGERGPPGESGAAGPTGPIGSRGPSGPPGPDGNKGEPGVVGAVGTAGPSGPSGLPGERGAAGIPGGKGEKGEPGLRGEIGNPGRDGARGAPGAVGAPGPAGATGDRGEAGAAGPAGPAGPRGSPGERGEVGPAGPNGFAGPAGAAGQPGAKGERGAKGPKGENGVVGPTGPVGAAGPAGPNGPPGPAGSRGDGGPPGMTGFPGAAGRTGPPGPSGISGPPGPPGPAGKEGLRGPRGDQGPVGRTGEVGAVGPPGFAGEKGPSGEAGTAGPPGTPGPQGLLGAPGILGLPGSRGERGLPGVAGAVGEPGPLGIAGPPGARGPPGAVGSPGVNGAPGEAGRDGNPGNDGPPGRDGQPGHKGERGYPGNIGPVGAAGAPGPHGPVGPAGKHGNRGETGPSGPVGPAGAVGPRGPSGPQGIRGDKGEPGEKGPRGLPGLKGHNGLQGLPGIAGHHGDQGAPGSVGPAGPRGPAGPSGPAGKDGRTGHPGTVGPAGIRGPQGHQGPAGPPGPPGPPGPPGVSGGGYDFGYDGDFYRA
Method: as §1

rat collagen II [1] = molecular target: T3, rat collagen II (rat, UniProt P05539 114-1173); test: ELISA, plate coated with 10 µg/ml rat collagen II, 100 µL Fab lysate, anti-kappa-HRP, chemiluminescence
T3 construct: Bought collagen preparation
T3 sequence (P05539 114-1173 limits assumed): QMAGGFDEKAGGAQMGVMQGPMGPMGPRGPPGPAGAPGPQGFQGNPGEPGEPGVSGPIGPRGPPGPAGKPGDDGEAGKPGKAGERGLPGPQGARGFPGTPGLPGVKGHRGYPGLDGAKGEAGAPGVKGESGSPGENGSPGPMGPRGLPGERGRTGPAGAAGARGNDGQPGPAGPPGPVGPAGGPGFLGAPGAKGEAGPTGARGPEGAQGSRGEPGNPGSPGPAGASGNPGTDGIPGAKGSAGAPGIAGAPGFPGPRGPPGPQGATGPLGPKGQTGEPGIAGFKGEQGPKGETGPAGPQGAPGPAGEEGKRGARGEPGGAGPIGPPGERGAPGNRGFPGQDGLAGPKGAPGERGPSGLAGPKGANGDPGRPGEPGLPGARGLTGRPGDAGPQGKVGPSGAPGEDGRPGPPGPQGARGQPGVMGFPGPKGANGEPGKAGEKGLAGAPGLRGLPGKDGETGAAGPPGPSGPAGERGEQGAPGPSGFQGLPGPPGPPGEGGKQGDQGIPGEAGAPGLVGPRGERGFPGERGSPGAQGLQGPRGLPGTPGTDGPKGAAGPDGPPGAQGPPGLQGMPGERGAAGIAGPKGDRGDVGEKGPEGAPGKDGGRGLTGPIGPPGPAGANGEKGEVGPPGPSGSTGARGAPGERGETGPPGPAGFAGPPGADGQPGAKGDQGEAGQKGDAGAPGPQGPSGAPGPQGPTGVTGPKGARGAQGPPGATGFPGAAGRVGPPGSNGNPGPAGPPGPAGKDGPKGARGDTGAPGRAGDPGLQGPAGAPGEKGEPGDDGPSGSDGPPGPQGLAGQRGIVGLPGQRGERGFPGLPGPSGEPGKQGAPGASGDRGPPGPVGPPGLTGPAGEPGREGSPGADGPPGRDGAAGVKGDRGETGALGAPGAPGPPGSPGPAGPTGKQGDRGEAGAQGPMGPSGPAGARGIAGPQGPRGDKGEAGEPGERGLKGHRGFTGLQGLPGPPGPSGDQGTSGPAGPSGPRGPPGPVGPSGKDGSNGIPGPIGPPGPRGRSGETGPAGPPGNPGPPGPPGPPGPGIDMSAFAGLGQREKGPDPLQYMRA
Method: as §1

human collagen II [2] = molecular target: T4, human collagen II (human, UniProt P02458 182-1241); test: ELISA, purified Fab 10 ng/ml-10 ug/ml on coated collagen II
T4 construct: Purified human collagen II (Chondrex #2015), isolated from cartilage; also called huColII; human type II collagen
T4 sequence (P02458 182-1241 limits assumed): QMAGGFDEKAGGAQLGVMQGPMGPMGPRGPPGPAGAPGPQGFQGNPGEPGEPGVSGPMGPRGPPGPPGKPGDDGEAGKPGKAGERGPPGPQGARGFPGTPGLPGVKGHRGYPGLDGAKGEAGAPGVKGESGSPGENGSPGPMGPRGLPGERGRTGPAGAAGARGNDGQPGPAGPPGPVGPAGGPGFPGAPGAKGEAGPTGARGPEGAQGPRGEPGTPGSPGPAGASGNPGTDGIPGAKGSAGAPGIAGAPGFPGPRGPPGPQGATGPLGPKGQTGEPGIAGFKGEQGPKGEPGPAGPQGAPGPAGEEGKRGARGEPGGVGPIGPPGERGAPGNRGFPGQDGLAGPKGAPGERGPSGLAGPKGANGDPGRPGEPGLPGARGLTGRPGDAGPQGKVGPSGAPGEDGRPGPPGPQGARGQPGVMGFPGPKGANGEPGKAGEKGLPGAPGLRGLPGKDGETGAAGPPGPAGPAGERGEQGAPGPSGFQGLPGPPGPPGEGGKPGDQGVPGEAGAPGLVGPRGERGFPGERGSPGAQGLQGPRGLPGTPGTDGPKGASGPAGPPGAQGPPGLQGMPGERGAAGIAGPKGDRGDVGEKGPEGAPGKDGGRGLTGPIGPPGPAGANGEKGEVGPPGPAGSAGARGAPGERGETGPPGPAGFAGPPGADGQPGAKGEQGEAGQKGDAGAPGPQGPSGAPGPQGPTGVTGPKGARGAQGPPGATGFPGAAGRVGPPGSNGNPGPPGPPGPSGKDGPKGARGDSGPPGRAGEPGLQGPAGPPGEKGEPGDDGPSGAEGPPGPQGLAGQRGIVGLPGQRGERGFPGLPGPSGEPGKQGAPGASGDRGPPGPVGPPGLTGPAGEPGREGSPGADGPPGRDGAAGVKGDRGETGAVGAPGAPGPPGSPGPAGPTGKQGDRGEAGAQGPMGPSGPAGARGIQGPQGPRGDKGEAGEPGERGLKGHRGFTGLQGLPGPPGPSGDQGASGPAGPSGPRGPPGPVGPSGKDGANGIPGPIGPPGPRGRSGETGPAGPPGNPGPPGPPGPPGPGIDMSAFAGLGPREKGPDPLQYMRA
Method: as §1
EC50 values were obtained for select Fabs using ELISA assay as described above. In the assays, 100 microliters of each Fab was added in a concentration range between 10 ng/ml-10 μg/ml onto the wells.

human collagen II [3] = molecular target: T4, human collagen II; test: Biacore binding kinetics
rat collagen II [4] = molecular target: T3, rat collagen II; test: Biacore binding kinetics
human collagen II [5] = molecular target: T4, human collagen II; test: ELISA, plate coated with 10 µg/ml human collagen II, 100 µL Fab lysate, anti-kappa-HRP, chemiluminescence
Method: as §1

Binder | binding result (rat collagen I) | binding result (human collagen I) | binding result (rat collagen II [1]) | EC50 (human collagen II [2]) | Kd (human collagen II [3]) | Kd (rat collagen II [4]) | binding result (human collagen II [5])
B1 | no binding (tested: not given (100 µL Fab lysate)) | no binding (tested: not given (100 µL Fab lysate)) |  |  |  |  | 
B2 | no binding (tested: not given (100 µL Fab lysate)) | no binding (tested: not given (100 µL Fab lysate)) | binds | 0.114 µg/mL |  |  | 
B3 |  |  |  | 0.123 µg/mL | 6 nM | 5 nM | 
B4 |  |  | binds |  |  |  | binds
B5 | no binding (tested: not given (100 µL Fab lysate)) |  | binds |  |  |  | binds
B6 | no binding (tested: not given (100 µL Fab lysate)) | no binding (tested: not given (100 µL Fab lysate)) | binds |  |  |  | binds
B7 | no binding (tested: not given (100 µL Fab lysate)) | no binding (tested: not given (100 µL Fab lysate)) | binds |  |  |  | binds
B8 | no binding (tested: not given (100 µL Fab lysate)) |  | binds |  |  |  | binds
B9 | no binding (tested: not given (100 µL Fab lysate)) | no binding (tested: not given (100 µL Fab lysate)) |  | 0.113 µg/mL | 50 nM | 75 nM | 
B10 |  |  | binds |  |  |  | binds
B11 | no binding (tested: not given (100 µL Fab lysate)) | no binding (tested: not given (100 µL Fab lysate)) | binds |  |  |  | binds
B12 | no binding (tested: not given (100 µL Fab lysate)) | no binding (tested: not given (100 µL Fab lysate)) |  |  |  |  | 
